Where two headings read alike, the source gives them in different places.
What was measured:
[1] = system: EcDa01 (Escherichia coli)
[2] = system: d22_PeDa01 (Pseudomonas entomophila)
[3] = 5caC at all four C of the listed strand sites
[4] = 5fC at all four C of the listed strand sites

“AAATTTAATTATAAAACGATCGACGACGAAATAATAAAAA (double strand) [40 bp 5caC oligo]” gave an activity (fraction deaminated) [1, 3] of 0 and an activity (fraction deaminated) [2, 3] of 0.
With “AAATTTAATTATAAAACGATCGACGACGAAATAATAAAAA (double strand) [40 bp 5fC oligo]” the activity (fraction deaminated) [1, 4] was 0.01 and the activity (fraction deaminated) [2, 4] was 0.
“AAATTTAATTATAAAACGATCGACGACGAAATAATAAAAA (double strand) [40 bp control C oligo]” showed an activity (fraction deaminated) [1] of 0.6 and an activity (fraction deaminated) [2] of 0.14.
